The target of the assay is T1, HLA-A*02:01 (human).
T1 construct: MHC monomers captured on streptavidin plates; the UV-sensitive peptide is cleaved and exchanged with the test peptide; also called peptide-receptive MHC molecules; MHC class I
Nature of the assay: UV ligand-exchange ELISA (anti-b2m); +++ = exchange yield >=50. An excerpt:
Candidate peptides for T cell based therapies according to the present invention were further tested for their MHC binding capacity (affinity). The individual peptide-MHC complexes were produced by UV-ligand exchange, where a UV-sensitive peptide is cleaved upon UV-irradiation, and exchanged with the peptide of interest as analyzed. Only peptide candidates that can effectively bind and stabilize the peptide-receptive MHC molecules prevent dissociation of the MHC complexes. To determine the yield of the exchange reaction, an ELISA was performed based on the detection of the light chain (β2m) of stabilized MHC complexes. The assay was performed as generally described in Rodenko et al. (Rodenko et al., 2006).
96 well MAXISorp plates (NUNC) were coated over night with 2 ug/ml streptavidin in PBS at room temperature, washed 4× and blocked for 1 h at 37° C. in 2% BSA containing blocking buffer. Refolded HLA-A*02:01/MLA-001 monomers served as standards, covering the range of 15-500 ng/ml. Peptide-MHC monomers of the UV-exchange reaction were diluted 100 fold in blocking buffer. Samples were incubated for 1 h at 37° C., washed four times, incubated with 2 ug/ml HRP conjugated anti-β2m for 1 h at 37° C., washed again and detected with TMB solution that is stopped with […]. Absorption was measured at 450 nm. […]
A general note: An ELISA detects its analyte on a solid surface through an enzyme-linked reagent.

B1: SLTGANITV (peptide)
peptide: SLTGANITV
In the case of B1, the peptide exchange yield was 50 to 75%.

The values are drawn from patent US20160279215A1, “NOVEL PEPTIDES AND COMBINATION OF PEPTIDES FOR USE IN IMMUNOTHERAPY AGAINST VARIOUS TUMORS” (immatics biotechnologies GmbH, priority 2015, published 2016).
